Paper doi:10.1101/2024.05.10.593077
Values joined by “and” are separate entries in the source; they are usually repeats but may differ in a detail not shown here. Equal entries are not always repeated.

Assays:
Human FcγRI (WT) (human) [1] = molecular target: Human FcγRI (WT) (human) (UniProt P12314); assay: SPR
Human FcγRI (WT) (human) [2] = molecular target: Human FcγRI (WT) (human) (UniProt P12314); assay: high-speed atomic force microscopy
[3] = molecular target: Trastuzumab ΔP230 (IgG1 with deletion of Pro230 in the lower hinge) (human); assay: SEC

Sequence of UniProt P12314 (P12314 16-292): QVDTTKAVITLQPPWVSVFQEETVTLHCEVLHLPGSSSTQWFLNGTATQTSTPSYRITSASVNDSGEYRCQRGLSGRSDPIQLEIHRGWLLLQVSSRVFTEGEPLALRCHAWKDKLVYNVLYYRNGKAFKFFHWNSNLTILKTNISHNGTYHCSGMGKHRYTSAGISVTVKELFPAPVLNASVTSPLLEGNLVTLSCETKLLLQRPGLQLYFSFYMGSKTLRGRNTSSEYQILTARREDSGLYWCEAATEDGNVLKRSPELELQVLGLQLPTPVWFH

Substance	Kd (Human FcγRI (WT) (human) [1])	stoichiometry N (IgG1 WT:FcγRI) (Human FcγRI (WT) (human) [2])	stoichiometry N (ΔP230:FcγRI (mol:mol)) (Human FcγRI (WT) (human) [2])	ratio monomer:dimer (monomer:dimer) [3]
Trastuzumab CSCS (IgG1 with the double substitution Cys226Ser and Cys229Ser) (antibody)	0.92 nM	–	–	–
Trastuzumab WT, anti-HER2 humanized IgG1 (antibody)	0.89 nM	1	–	–
Trastuzumab ΔP230 (IgG1 with deletion of Pro230 in the lower hinge) (antibody)	23.5 nM	–	1 and 2	6
